Entries after “also recorded” stand apart in the source; their conditions may differ.
B1: M5: human anti-mesothelin scFv SEQ ID NO: 43; full CAR SEQ ID NO: 67 (protein)
scFv: QVQLVQSGAEVEKPGASVKVSCKASGYTFTDYYMHWVRQAPGQGLEWMGWINPNSGGTNYAQKFQGRVTMTRDTSISTAYMELSRLRSDDTAVYYCASGWDFDYWGQGTLVTVSSGGGGSGGGGSGGGGSGGGGSDIVMTQSPSSLSASVGDRVTITCRASQSIRYYLSWYQQKPGKAPKLLIYTASILQNGVPSRFSGSGSGTDFTLTISSLQPEDFATYYCLQTYTTPDFGPGTKVEIK
B2: M11: human anti-mesothelin scFv SEQ ID NO: 49; full CAR SEQ ID NO: 73 (protein)
scFv: QVQLQQSGAEVKKPGASVKVSCKASGYTFTGYYMHWVRQAPGQGLEWMGWINPNSGGTNYAQNFQGRVTMTRDTSISTAYMELRRLRSDDTAVYYCASGWDFDYWGQGTLVTVSSGGGGSGGGGSGGGGSGGGGSDIRMTQSPSSLSASVGDRVTITCRASQSIRYYLSWYQQKPGKAPKLLIYTASILQNGVPSRFSGSGSGTDFTLTISSLQPEDFATYYCLQTYTTPDFGPGTKVEIK

What was measured:
[1] = Questionnaires on energy and exercise one year after dosing; assay type: in vivo, human; conditions: 0.5 mg daily cohort
[2] = system: P70 S6K; experiment: Percent inhibition of P70 S6K activity in HeLa cells in vitro; conditions: concentrations from 30 pM to 4 nM
[3] = molecular target: T1, biotinylated mesothelin ECD (Homo sapiens, UniProt Q13421); experiment: SPR relative epitope binning in comparison to SS1; assay type: binding; conditions: 50 nM SS1 captured first, then scFv at 100 nM
T1 construct: made in house; host or cells: HEK293F (transient)
T1 sequence (Q13421 with tags, fused parts or gaps): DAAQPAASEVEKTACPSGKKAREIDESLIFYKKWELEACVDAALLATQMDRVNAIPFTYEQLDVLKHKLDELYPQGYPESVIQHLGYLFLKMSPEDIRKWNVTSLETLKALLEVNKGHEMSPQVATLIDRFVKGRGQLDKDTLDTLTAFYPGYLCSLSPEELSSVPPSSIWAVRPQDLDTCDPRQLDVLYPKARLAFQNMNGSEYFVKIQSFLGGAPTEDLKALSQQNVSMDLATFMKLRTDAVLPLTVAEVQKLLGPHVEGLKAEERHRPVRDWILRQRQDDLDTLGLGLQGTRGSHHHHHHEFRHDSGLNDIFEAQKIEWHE
Protocol: In embodiments, the competition assay is an SPR-based assay. Briefly, the antigen, e.g., human mesothelin, is immobilized on a surface. Through a microflow system, a reference antibody is injected over the antigen layer. Upon binding of the reference antibody to the antigen, an increase in signal, typically expressed in response units (RU) is detected, e.g., reference signal. After a desired time, a test antibody is injected over the antigen layer. If the test antibody binds to a different region or epitope of the antigen, then an additional increase in signal is detected, e.g., a 5% or more, 10% or more, 15% or more, 20% or more, 25% or more, 30% or more, 35%, or more, 40% or more, 45% or more, 50% or more, 55% of more, 60% or more, 65% or more, 70% or more, 75% or more, 80% or more, 85% or more, 90% or more, or 95% or more increase in signal, e.g., RU, as compared to the highest signal detected upon binding of the reference antibody, e.g., the reference signal. If the test antibody binds to the same region or epitope of the antigen, then little or no increase in signal, e.g., RU, will be detected, e.g., less than 20%, less than 15%, less than 10%, less than 5%, less than 4%, less than 3%, less than 2%, or less than 1% increase in signal, e.g., RU, as compared to the highest signal detected upon binding of the reference antibody, e.g., the reference signal. When using this SPR-based competition assay, an antibody is said to compete with the reference antibody when less than 20%, less than 15%, less than 10%, less than 5%, less than 4%, less than 3%, less than 2%, or less than 1% increase in signal, e.g., RU, is detected when compared to the reference signal detected upon binding of the reference antibody to the antigen. An antibody is said to not compete, or compete poorly, with a reference antibody when a 5% or more, 10% or more, 15% or more, 20% or more, 25% or more, 30% or more, 35%, or more, 40% or more, 45% or more, 50% or more, 55% of more, 60% or more, 65% or more, 70% or more, 75% or more, 80% or more, 85% or more, 90% or more, or 95% or more increase in signal, e.g., RU, is detected when compared to the reference signal detected upon binding of the reference antibody to the antigen.
To determine the relative binding epitope of each of the scFvs in comparison to SS1, 50 nM SS1 was captured by biotinylated mesothelin ECD immobilized on a streptavidin sensor chip at a contact time of 180 seconds resulting in a relative density of 70 RU. Purified scFv at 100 nM (M5, M11, M12, M14, M16, M17, M21, or M23) was then immediately injected over the chip to minimize dissociation of the SS1/mesothelin complex. Binding of the secondary scFv was monitored for 270 seconds.

[4] = molecular target: T1, biotinylated mesothelin ECD; experiment: Surface plasmon resonance (Biacore T200) binding affinity of purified scFvs; conditions: for Kd: 1:1 Binding or Steady State Affinity fit
Protocol: Binding affinity of purified scFvs was measured on a Biacore T200 system. Briefly, recombinant human biotinylated mesothelin ECD was immobilized on a streptavidin (SA) sensor chip surface at a density of 150 RU. Purified scFv was injected over the chip under constant flow rate at three-fold serial dilutions. Association and dissociation rates of the protein complex were monitored for 270 seconds and 400 seconds, respectively. Double referencing was performed against a blank immobilized flow cell and a buffer blank. Affinity was determined with a Langmuir 1:1 binding model when possible, for those scFVs where accurate fitting was not possible due to fast on and off rates, the steady state model was used.

[5] = Size exclusion chromatography (oligomerization state of expressed scFvs); assay type: physicochemical; conditions: purified scFv
Protocol: Size exclusion chromatography was performed to determine the oligomerization states of the expressed scFvs. 25 μg each was injected onto a TSKGel Super SW3000 4.6 mm×300 mm column (Tosoh Bioscience) heated to 35° C. The scFvs were eluted at 0.3 mL/min in 750 mM arginine, 1 mM EDTA, 20 mM sodium phosphate, 250 mM sodium chloride, pH 7.2; the UV absorbance was monitored at 280 nm.

[6] = system: Ovcar3; experiment: Luciferase-based killing assay; assay type: cell-based, human; conditions: for killing of target tumor cells: E:T 10:1 to 1:1, 20 hours, FIG. 16A; for specific killing within the panel of human meso CARs: FIGS. 17A and 17B
Protocol: The ability for the CART-MSLN to target and kill tumor cells was also assessed in vitro. A luciferase-based assay was used, with tumor cell lines expressing luciferase reporters. Target cells (tumor cells) were plated at 20,000 targets/well. CART-MSLN were added at varying effector:target ratios, from 10:1, 5:1, 2.5:1, and 1:1. The cells were cultured for 20 hours, and the luminescence of each well was detected to determine the percentage of target cells killed. Luciferase-expressing Ovcar3 (ovarian cancer) and U87 mg (glioblastoma) cell lines were used as target cells.

Row | Molecule | energy and exercise ability [1] | effect on P70 S6K activity in cell lines [2] | relative epitope binning against SS1 on human mesothelin [3] | ka ([4]; 1:1 Binding fit) [M⁻¹ s⁻¹] | kd ([4]; 1:1 Binding fit) [s⁻¹] | Kd [4] [nM] | % Monomer (SEC) [5] [%] | killing of target tumor cells [6] | specific killing within the panel of human meso CARs [6]
1 | CO[C@H]1C[C@@H]2CC[C@@H](C)[C@@](O)(O2)C(=O)C(=O)N2CCCC[C@H]2C(=O)O[C@H]([C@H](C)C[C@@H]2CC[C@@H](OCCO)[C@H](OC)C2)CC(=O)[C@H](C)/C=C(\C)[C@@H](O)[C@@H](OC)C(=O)[C@H](C)C[C@H](C)/C=C/C=C/C=C/1C [RAD001, (1R,9S,12S,15R,16E,18R,19R,21R,23 S,24E,26E,28E,30S,32S,35R)-1,18-dihydroxy-12-{(1R)-2-[(1 S,3R,4R)-4-(2-hydroxyethoxy)-3-methoxycyclohexyl]-1-methylethyl}-19,30-dimethoxy-15,17,21,23,29,35-hexamethyl-11,36-dioxa-4-aza-tricyclo[30.3.1.04,9]hexatriaconta-16,24,26,28-tetraene-2,3,10,14,20-pentaone] | increased energy and exercise ability as compared to placebo | partially inhibited P70 S6K activity | – | – | – | – | – | – | –
2 | B1 | – | – | bind to a different epitope than SS1; also recorded: bind to a unique epitope | 42000 | 0.00113 | 26.9 | 82 | performed similarly well in killing target tumor cells | highest specific killing of Ovcar3 cells
3 | B2 | – | – | bind to a different epitope than SS1; also recorded: bind to a unique epitope | – | – | 64.7 | – | performed similarly well in killing target tumor cells | highest specific killing of Ovcar3 cells

From patent publication US11999794B2, “Human mesothelin chimeric antigen receptors and uses thereof” (Novartis AG, priority 2013, dated 2024)
